Source: patent publication US20210102192A1 (TWIST BIOSCIENCE, published 2021)
Changes are numbered by the printed parent chain. Where two headings read alike, the source gives them in different places. One block for each binder: values may come before it.

Columns and labels:
[1] = target: T1, Prostaglandin D2 receptor 2 (CRTH2R) (human, UniProt Q9Y5Y4 1-395); test: cell-based or functional assay
T1 sequence: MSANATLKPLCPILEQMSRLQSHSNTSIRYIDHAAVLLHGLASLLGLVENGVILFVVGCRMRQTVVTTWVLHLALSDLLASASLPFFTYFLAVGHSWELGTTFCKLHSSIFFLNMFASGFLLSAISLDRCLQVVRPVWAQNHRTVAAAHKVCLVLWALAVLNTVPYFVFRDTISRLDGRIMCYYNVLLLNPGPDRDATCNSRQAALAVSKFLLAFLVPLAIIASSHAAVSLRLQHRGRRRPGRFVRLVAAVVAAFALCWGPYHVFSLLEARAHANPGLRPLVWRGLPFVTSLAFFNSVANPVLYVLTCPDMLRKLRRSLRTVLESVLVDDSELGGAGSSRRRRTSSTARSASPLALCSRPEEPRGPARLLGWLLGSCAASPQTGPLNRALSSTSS

[2] = target: T2, Prostaglandin D2 receptor 2 (CRTH2R) (UniProt Q9Y5Y4 1-395); test: FACS binding; CHO CRTH2R-positive cells
T2 chain: T1 sequence

[3] = target: T2, Prostaglandin D2 receptor 2 (CRTH2R); test: FACS binding; CHO CRTH2R-positive cells
[4] = target: T2, Prostaglandin D2 receptor 2 (CRTH2R); test: FACS binding; CHO CRTH2R-positive cells
[5] = target: T2, Prostaglandin D2 receptor 2 (CRTH2R); test: FACS binding; CHO CRTH2R-positive cells

B1: CRTH2-27 (antibody, V domains shown)
VH: QVQLVESGGGVVQPGRSLRLSCAASGFTFDNYGMHWVRQAPGKGLEWVAVISYEGSNKKYADSVKGRFTISRDNSKNTLYLQMNSLRAEDTAVYYCARDMYYDFGSIYGEDVVGELPEVVPADDAFDIWGQGTLVTVSS
VL: QSALTQPASVSGSPGQSITISCTGTSNDVGAYNFVSWYQQHPGKAPKLMIYDISNRPSGVSNRFSGSKSGNTASLTISGLQAEDEADYYCSSYTRSNTRVFGGGTKLTVL
IC50 fold difference of the PGD2 dose response curve (cAMP assay, 100 nM IgG) [1]: > 2 fold

B2: CRTH2 66 (antibody)
chain 1: QVQLVESGGGVVQPGRSLRLSCAASGFDFSGYGMHWVRQAPGKGLEWVAVISYEGSNKFYADSVKGRFTISRDNSKNTLYLQMNSLRAEDTAVYYCARDLRELECEEWTIEVHGQEFAVHQDRGGVFSRGPCVDPRGVAGSFDVWGQGTLVTVSS
chain 2: EIVMTQSPATLSVSPGERATLSCRASQGVGSNLAWYQQKPGQAPRLLIYRTSIRATGIPARFSGSGSGTEFTLTISSLQSEDFAVYYCQQYYSWPPLTFGGGTKVEIK
EC50 [2]: 3.95 nM

B3: CRTH2 57 (antibody, V domains shown)
VH: QVQLVQSGAEVKKPGSSVKVSCKASGGTFSSYAMSWVRQAPGQGLEWMGGIIPLFGTTDYAQKFQGRVTITADESTSTAYMELSSLRSEDTAVYYCARANQHFVKIQGAPVSTPVPGFGTTGYHYYGMDVWGQGTLVTVSS
VL: QSVLTQPPSVSAAPGQKVTISCSGSSSNIEDNYVSWYQQLPGTAPKLLIYDNFKRPSGIPDRFSGSKSGTSATLGITGLQTGDEADYYCGTWDTSLSAALFGGGTKLTVL
EC50 [2]: 158 nM

B5: CRTH2-15 (antibody, V domains shown)
VH: QVQLVQSGAEVKKPGSSVKVSCKASGGTFSTYAIDWVRQAPGQGLEWMGGIIPLFGSPNYAQKFQGRVTITADESTSTAYMELSSLRSEDTAVYYCARANQHFFLYEGTSSSWLHVGHARYGYHYYGMDVWGQGTLVTVSS
VL: B3 VL with S26G, E30G, D31S, F53I, K54R, G90A, T91A, S95R, A99G, L100V
antagonist activity in PGD2-induced cAMP assay at 33 nM IgG [1]: > 20%
EC50 [3]: 73.8 nM

B7: CRTH2-32 (antibody, V domains shown)
VH: QVQLVESGGGVVQPGRSLRLSCAASGFTFSKHGMHWVRQAPGKGLEWVAFISYEGSEKYYADSVKGRFTISRDNSKNTLYLQMNSLRAEDTAVYYCARDMYYDFHYSTVGATYYYYLGSETEVVPADDAFDIWGQGTLVTVSS
VL: QSALTQPASVSGSPGQSITISCTGTSSGVGGYDYVSWYQQHPGKAPKLMIYDDNNRPSGVSNRFSGSKSGNTASLTISGLQAEDEADYYCSSYTGSSTLYVFGGGTKLTVL
IC50 fold difference of the PGD2 dose response curve (cAMP assay, 100 nM IgG) [1]: > 2 fold
EC50 [4]: 12.4 nM

B11: CRTH2-28 (antibody, V domains shown)
VH: QVQLVQSGAEVKKPGSSVNVSCKASGGTFSDYAFSWVRQAPGQGLEWMGAIIPFFGTVNYAQKFQGRVTITADESTSTAYMELSSLRSEDTAVYYCARDMYYDFATGTGGPEDDLYPQGELNDGYRIEVVPADDAFDIWGQGTLVTVSS
VL: B3 VL with S26I, E30G, D31K, N52D, F53H, G90A, T94R, S95G, L100V
antagonist activity in PGD2-induced cAMP assay at 33 nM IgG [1]: > 20%

B12: CRTH2-9 (antibody, V domains shown)
VH: QVQLVQSGAEVKKPGSSVKVSCKASGGTFSSYAISWVRQAPGQGLEWMGGIIPIFGTANYAQKFQGRVTITADESTSTAYMELSSLRSEDTAVYYCARDMYYDFWLGDQSTGSLIGAEVVPADDAFDIWGQGTLVTVSS
VL: B3 VL with S26T, E30G, D31N, D51E, F53D, K54E, G90A, S95R, A99V, L100V
IC50 fold difference of the PGD2 dose response curve (cAMP assay, 100 nM IgG) [1]: > 2 fold
antagonist activity in PGD2-induced cAMP assay at 33 nM IgG [1]: > 20%

B13: CRTH2-45 (antibody)
VH: QVQLVESGGGVVQPGRSLRLSCAASGFTFSHYAMHWVRQAPGKGLEWVADISHEGSNKYYADSVKGRFTISRDNSKNTLYLQMNSLRAEDTAVYYCARDGRGSLPRPKGGPTSGGGFSTNIGYGFVVQSYDSSEDSGGAFDIWGQGTLVTVSS
VL: QSVLTQPPSVSAAPGQKVTISCSGTSSNIENNYVSWYQQLPGTAPKLLIYDNVKRPSGIPDRFSGSKSGTSATLGITGLQTGDEADYYCGTWDNTVSAPWVFGGGTKLTVL
antagonist activity in PGD2-induced cAMP assay at 33 nM IgG [1]: > 20%
EC50 [4]: 23.2 nM

B17: CRTH2-19 (antibody, V domains shown)
VH: QVQLVQSGAEVKKPGSSVKVSCKASGGTFSSHAINWVRQAPGQGLEWMGRIIPIVGTTTYAQKFQGRVTITADESTSTAYMELSSLRSEDTAVYYCARDMYYDFDYFGLTLTGDRNDDEVVPADDAFDIWGQGTLVTVSS
VL: QSALTQPASVSGSPGQSITISCTGTSSDVGGYDYVTWYQQHPGKAPKLMIYDVDTRPSGVSNRFSGSKSGNTASLTISGLQAEDEADYYCSSYTTSTSYVFGGGTKLTVL
EC50 [5]: 16.7 nM
antagonist activity in PGD2-induced cAMP assay at 33 nM IgG [1]: > 20%

Further lines, results first:

antagonist activity in PGD2-induced cAMP assay at 33 nM IgG [1]: > 20%
B4: CRTH2-8 (antibody, V domains shown)
VH: QVQLVQSGAEVKKPGSSVKVSCKASGGTFTDYAISWVRQAPGQGLEWMGGIIPFFGSPNYAQKFQGRVTITADESTSTAYMELSSLRSEDTAVYYCARDMYYDFAAGLEGTITEVFDEEGHQGGTEVVPADDAFDIWGQGTLVTVSS
VL: B3 VL with E30G, D31K, F53N, K54Q, S97T, A98S, A99V, L100V

antagonist activity in PGD2-induced cAMP assay at 33 nM IgG [1]: > 20%
B6: CRTH2-70 (antibody, V domains shown)
VH: QVQLVQSGAEVKKPGSSVKVSCKASGGTFSNHAIIWVRQAPGQGLEWMGGIIPIFGTPSYAQKFQGRVTITADESTSTAYMELSSLRSEDTAVYYCARDMYYDFDVISAGVVGAGNPEVVPADDAFDIWGQGTLVTVSS
VL: QSVLTQPPSVSAAPGQKVTISCSGSTSNIGNNFVSWYQQLPGTAPKLLIYDNEKRPSGIPDRFSGSKSGTSATLGITGLQTGDEADYYCGTWDERQTDESYVFGGGTKLTVL

IC50 fold difference of the PGD2 dose response curve (cAMP assay, 100 nM IgG) [1]: > 2 fold
antagonist activity in PGD2-induced cAMP assay at 33 nM IgG [1]: > 20%
B8: CRTH2-42 (antibody)
VH: QVQLVESGGGVVQPGRSLRLSCAASGFAFSSYAMHWVRQAPGKGLEWVAVISYEGSNEYYADSVKGRFTISRDNSKNTLYLQMNSLRAEDTAVYYCARDLRELECEEWTVLQYGKFHMRWAESGEGSLSRGPCVDPRGVAGSFDVWGQGTLVTVSS
VL: B7 VL with G28D, D33R, D52N, D53V, N55Y, T94R, G95S, Y100G

antagonist activity in PGD2-induced cAMP assay at 33 nM IgG [1]: > 20%
B9: CRTH2-24 (antibody, V domains shown)
VH: QVQLVQSGAEVKKPGSSVKVSCKASGGSFSNYGISWVRQAPGQGLEWMGGIIPLIGTANYAQKFQGRVTITADESTSTAYMELSSLRSEDTAVYYCARDMYYDFTLGPQSIGPLGEVVPADDAFDIWGQGTLVTVSS
VL: QSVLTQPPSVSAAPGQKVTISCSGSSSNIGNNFVSWYQQLPGTAPKLLIYDNIQRPSGIPDRFSGSKSGTSATLGITGLQTGDEADYYCGTWDTSLSAVVFGGGTKLTVLR

EC50 [5]: 8.61 nM
antagonist activity in PGD2-induced cAMP assay at 33 nM IgG [1]: > 20%
B10: CRTH2-74 (antibody)
VH: QVQLVESGGGVVQPGRSLRLSCAASGFSFSEYGIHWVRQAPGKGLEWVAVISYEGSNEYYADSVKGRFTISRDNSKNTLYLQMNSLRAEDTAVYYCARANQHFGPVAGGATPSEEPGSQLTRAELGWDAPPGQESLADELLQLGTEHGYHYYGMDVWGQGTLVTVSS
VL: QSVLTQPPSVSAAPGQKVTISCSGSTSNIGKNYVSWYQQLPGTAPKLLIYDDDERPSGIPDRFSGSMSGTSATLGITGLQTGDEADYYCEAWDADLSGAVFGGGTKLTVL

antagonist activity in PGD2-induced cAMP assay at 33 nM IgG [1]: > 20%
B14: CRTH2-60 (antibody, V domains shown)
VH: QVQLVQSGAEVKKPGSSVKVSCKASGGTFKNYAINWVRQAPGQGLEWMGAIIPKFGAANYAQKFQGRVTITADESTSTAYMELSSLRSEDTAVYYCARANQHFSAVRGLAFGYGYRIGGYHYYGMDVWGQGTLVTVSS
VL: QSVLTQPPSVSAAPGQKVTISCSGSTSNIGINYVSWYQQLPGTAPKLLIYENRKRPSGIPDRFSGSKSGTSATLGITGLQTGDEADYYCATWDASLKNLVFGGGTKLTVL

IC50 fold difference of the PGD2 dose response curve (cAMP assay, 100 nM IgG) [1]: > 2 fold
EC50 [3]: 19.6 nM
B15: CRTH2-50 (antibody, V domains shown)
VH: QVQLVQSGAEVKKPGSSVKVSCKASGGTFSSYALSWVRKAPGQGLEWMGGTIPIFGTVNYAQKFQGRVTITADESTSTAYMELSSLRSEDTAVYYCARANQHFTRVIGQPSPAVPSRGYIYHGYHYYGMDVWGQGTLVTVSS
VL: QSALTQPASVSGSPGQSITISCTGTSSDIGGYNFVSWYQQHPGKAPKLMIYDVSNRPQGVSNRFSGSKSGNTASLTISGLQAEDEADYYCSSYTSSNTYVVFGGGTKLTVL

EC50 [4]: 12.6 nM
B16: CRTH2 35 (antibody, V domains shown)
VH: QVQLVQSGAEVKKPGSSVKVSCKASGGTFRSYAISWVRQAPGQGLEWMGGIIPISGTTNYAQKFQGRVTITADESTSTAYMELSSLRSEDTAVYYCARANQHFTRIFGNYQIYFGHFGYHYYGMDVWGQGTLVTVSS
VL: B15 VL with N33E, D52G, N55R, Q58S, S91G, N97S, Y99P, V100Y
